This is an account of results in paper PMC4349574 (Developmental cell, 2013).

The target in this test is T1, Ypp1 (residues 11–817), purified, GST tag removed (S. cerevisiae, UniProt P46951 11-817).
T1 sequence (looked up): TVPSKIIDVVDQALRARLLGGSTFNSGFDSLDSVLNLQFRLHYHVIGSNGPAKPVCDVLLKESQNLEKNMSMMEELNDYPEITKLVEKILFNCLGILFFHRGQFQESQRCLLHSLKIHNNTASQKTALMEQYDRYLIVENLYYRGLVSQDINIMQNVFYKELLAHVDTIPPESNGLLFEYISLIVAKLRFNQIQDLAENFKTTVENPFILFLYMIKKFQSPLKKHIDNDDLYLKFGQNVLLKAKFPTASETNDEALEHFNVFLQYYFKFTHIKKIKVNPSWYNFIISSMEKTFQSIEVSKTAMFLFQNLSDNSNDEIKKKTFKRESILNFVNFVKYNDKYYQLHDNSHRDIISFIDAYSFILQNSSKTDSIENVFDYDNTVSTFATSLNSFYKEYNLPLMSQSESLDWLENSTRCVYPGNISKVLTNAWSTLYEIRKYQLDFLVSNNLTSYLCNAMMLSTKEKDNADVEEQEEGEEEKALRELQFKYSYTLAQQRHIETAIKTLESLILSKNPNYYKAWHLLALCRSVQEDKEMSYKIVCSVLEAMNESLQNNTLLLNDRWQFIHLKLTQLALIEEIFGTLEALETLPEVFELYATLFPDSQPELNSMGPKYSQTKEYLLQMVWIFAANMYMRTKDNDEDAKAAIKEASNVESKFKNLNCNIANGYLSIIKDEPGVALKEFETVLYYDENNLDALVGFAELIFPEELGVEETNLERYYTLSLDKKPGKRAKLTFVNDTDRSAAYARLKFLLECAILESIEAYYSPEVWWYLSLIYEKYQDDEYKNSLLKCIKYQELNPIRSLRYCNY
The test can be described thus: pull-down.

B1: GST-Efr3-C_(651–730) (domain or fragment, S. cerevisiae, UniProt Q03653 651-730, looked up)
chain: APKVSDLKKTMNEKNIPNNMKRDGSFRGSQSVKSRVTNITFLLNELKTFSDDANKIKDPDEENIVGLDKIDVARSNSLRL
As to B1, the binding result is “binds”.
